Results published in patent US20210346432A1 (Memorial Sloan Kettering, published 2021).
No end group written: not given here. *: point of attachment. Biotin = O=C1N[C@H]2[C@H](CS[C@H]2CCCCC(=O)*)N1

What was measured:
ET140-p9 = target: T1, ET140-p9 (human, cysteine pairing not given here); assay: peptide ELISA, biotin peptide on streptavidin plate
T1 construct: also called peptide 9
T1 peptide: Biotin-SGSGQNEYFDSLLHACIPC
Experimental: (§1) The peptides were coated onto Streptavidin plates at 2 ug/mL in PBST (PBS+0.05% Tween-20). After washing and blocking with 3% BSA. […] “mIgG1” used in all Examples represents that the variable region is fully human and the Fc part is mouse IgG1. Then HRP anti-mouse IgG detection antibody was added to each well. Finally, the color was developed using TMB substrate. A450 was recorded for data analysis.

ET140-p6 = target: T2, ET140-p6 (human, cysteine pairing not given here); assay: as above
T2 construct: also called peptide 6
T2 peptide: Biotin-SGSGQCSQNEYFDSLLHAC
Experimental: as §1

ET140-p29 = target: T3, ET140-p29 (human, cysteine pairing not given here); assay: as above
T3 construct: also called peptide 29
T3 peptide: Biotin-SGSGSNTPPLTCQRYCNAS
Experimental: as §1

ET140-p24 = target: T4, ET140-p24 (human, cysteine pairing not given here); assay: as above
T4 construct: also called peptide 24
T4 peptide: Biotin-SGSGQLRCSSNTPPLTCQR
Experimental: as §1

ET140-p26 = target: T5, ET140-p26 (human, cysteine pairing not given here); assay: as above
T5 construct: also called peptide 26
T5 peptide: Biotin-SGSGRCSSNTPPLTCQRYC
Experimental: as §1

ET140-p14 = target: T6, ET140-p14 (human, cysteine pairing not given here); assay: as above
T6 construct: also called peptide 14
T6 peptide: Biotin-SGSGDSLLHACIPCQLRCS
Experimental: as §1

ET140-p38 = target: T7, ET140-p38 (human); assay: as above
T7 construct: also called peptide 38
T7 peptide: Biotin-SGSGRYCNASVTNSVKGTN
Experimental: as §1

ET140-p37 = target: T8, ET140-p37 (human); assay: as above
T8 construct: also called peptide 37
T8 peptide: Biotin-SGSGQRYCNASVTNSVKGT
Experimental: as §1

ET140-p25 = target: T9, ET140-p25 (human, cysteine pairing not given here); assay: as above
T9 construct: also called peptide 25
T9 peptide: Biotin-SGSGLRCSSNTPPLTCQRY
Experimental: as §1

ET140-p27 = target: T10, ET140-p27 (human, cysteine pairing not given here); assay: as above
T10 construct: also called peptide 27
T10 peptide: Biotin-SGSGCSSNTPPLTCQRYCN
Experimental: as §1

ET140-p34 = target: T11, ET140-p34 (human, cysteine pairing not given here); assay: as above
T11 construct: also called peptide 34
T11 peptide: Biotin-SGSGLTCQRYCNASVTNSV
Experimental: as §1

ET140-p17 = target: T12, ET140-p17 (human, cysteine pairing not given here); assay: as above
T12 construct: also called peptide 17
T12 peptide: Biotin-SGSGLHACIPCQLRCSSNT
Experimental: as §1

ET140-p13 = target: T13, ET140-p13 (human, cysteine pairing not given here); assay: as above
T13 construct: also called peptide 13
T13 peptide: Biotin-SGSGFDSLLHACIPCQLRC
Experimental: as §1

ET140-p5 = target: T14, ET140-p5 (human); assay: as above
T14 construct: also called peptide 5
T14 peptide: Biotin-SGSGGQCSQNEYFDSLLHA
Experimental: as §1

ET140-p11 = target: T15, ET140-p11 (human, cysteine pairing not given here); assay: as above
T15 construct: also called peptide 11; ET140-pll
T15 peptide: Biotin-SGSGEYFDSLLHACIPCQL
Experimental: as §1

ET140-p39 = target: T16, ET140-p39 (human); assay: as above
T16 construct: also called peptide 39
T16 peptide: Biotin-SGSGYCNASVTNSVKGTNA
Experimental: as §1

ET140-p10 = target: T17, ET140-p10 (human, cysteine pairing not given here); assay: as above
T17 construct: also called peptide 10
T17 peptide: Biotin-SGSGNEYFDSLLHACIPCQ
Experimental: as §1

ET140-p19 = target: T18, ET140-p19 (human, cysteine pairing not given here); assay: as above
T18 construct: also called peptide 19
T18 peptide: Biotin-SGSGACIPCQLRCSSNTPP
Experimental: as §1

ET140-p3 = target: T19, ET140-p3 (human); assay: as above
T19 construct: also called peptide 3
T19 peptide: Biotin-SGSGMAGQCSQNEYFDSLL
Experimental: as §1

ET140-p28 [1] = target: T20, ET140-p28 (human, cysteine pairing not given here); assay: as above
T20 construct: also called peptide 28
T20 peptide: Biotin-SGSGSSNTPPLTCQRYCNA
Experimental: as §1

ET140-p21 = target: T21, ET140-p21 (human, cysteine pairing not given here); assay: as above
T21 construct: also called peptide 21
T21 peptide: Biotin-SGSGIPCQLRCSSNTPPLT
Experimental: as §1

ET140-p15 = target: T22, ET140-p15 (human, cysteine pairing not given here); assay: as above
T22 construct: also called peptide 15
T22 peptide: Biotin-SGSGSLLHACIPCQLRCSS
Experimental: as §1

ET140-p12 = target: T23, ET140-p12 (human, cysteine pairing not given here); assay: as above
T23 construct: also called peptide 12
T23 peptide: Biotin-SGSGYFDSLLHACIPCQLR
Experimental: as §1

ET140-p30 = target: T24, ET140-p30 (human, cysteine pairing not given here); assay: as above
T24 construct: also called peptide 30
T24 peptide: Biotin-SGSGNTPPLTCQRYCNASV
Experimental: as §1

ET140-p7 = target: T25, ET140-p7 (human, cysteine pairing not given here); assay: as above
T25 construct: also called peptide 7
T25 peptide: Biotin-SGSGCSQNEYFDSLLHACI
Experimental: as §1

ET140-p20 = target: T26, ET140-p20 (human, cysteine pairing not given here); assay: as above
T26 construct: also called peptide 20
T26 peptide: Biotin-SGSGCIPCQLRCSSNTPPL
Experimental: as §1

ET140-p1 = target: T27, ET140-p1 (human); assay: as above
T27 construct: also called peptide 1; ET140-pl
T27 peptide: Biotin-SGSGLQMAGQCSQNEYFDS
Experimental: as §1

ET140-p35 = target: T28, ET140-p35 (human, cysteine pairing not given here); assay: peptide ELISA on streptavidin plate
T28 construct: also called peptide 35
T28 peptide: Biotin-SGSGTCQRYCNASVTNSVK
Experimental: as §1

ET140-p2 = target: T29, ET140-p2 (human); assay: peptide ELISA on streptavidin plate
T29 construct: also called peptide 2
T29 peptide: Biotin-SGSGQMAGQCSQNEYFDSL
Experimental: as §1

ET140-p32 = target: T30, ET140-p32 (human, cysteine pairing not given here); assay: peptide ELISA on streptavidin plate
T30 construct: also called peptide 32
T30 peptide: Biotin-SGSGPPLTCQRYCNASVTN
Experimental: as §1

ET140-p23 = target: T31, ET140-p23 (human, cysteine pairing not given here); assay: peptide ELISA on streptavidin plate
T31 construct: also called peptide 23
T31 peptide: Biotin-SGSGCQLRCSSNTPPLTCQ
Experimental: as §1

ET140-p28 [2] = target: T20, ET140-p28; assay: peptide ELISA on streptavidin plate
Experimental: as §1

Measured: binding result

B1: ET140-174 mIgG1 (antibody, V domains shown)
VH: EVQLVQSGAEVKKPGESLKISCKGSGYSFTSYWIGWVRQMPGKGLEWMGIIYPGDSDTRYSPSFQGHVTISADKSISTAYLQWSSLKASDTAMYYCARYSGSFDNWGQGTLVTVSS
VL: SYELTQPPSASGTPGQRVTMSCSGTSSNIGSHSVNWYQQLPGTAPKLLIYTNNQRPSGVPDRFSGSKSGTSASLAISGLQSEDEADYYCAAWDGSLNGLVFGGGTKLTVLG
notes: also called ET140-24 mIgG1; ET140-24
not listed: ET140-p35 | ET140-p2 | ET140-p32 | ET140-p23 | ET140-p28 [2]
no binding (tested: 1 ug/mL): all other assays above

B2: ET140-204 mIgG1 (antibody, V domains shown)
VH: EVQLVQSGAEMKKPGASLKLSCKASGYTFIDYYVYWMRQAPGQGLESMGWINPNSGGTNYAQKFQGRVTMTRDTSISTAYMELSRLRSDDTAMYYCARSQRDGYMDYWGQGTLVTVSS
VL: QSALTQPASVSASPGQSIAISCTGTSSDVGWYQQHPGKAPKLMIYEDSKRPSGVSNRFSGSKSGNTASLTISGLQAEDEADYYCSSNTRSSTLVFGGGTKLTVLG
notes: also called ET140-54 mIgG1; ET140-54
not listed: ET140-p35 | ET140-p2 | ET140-p32 | ET140-p23 | ET140-p28 [2]
no binding (tested: 1 ug/mL): all other assays above

B3: ET140-153 mIgG1 (antibody, V domains shown)
VH: QVQLVQSGAEVKKPGSSVKVSCKASGGTFSSYAISWVRQAPGQGLEWMGRIIPILGIANYAQKFQGRVTITADKSTSTAYMELSSLRSEDTAVYYCARGGYYSHDMWSEDWGQGTLVTVSS
VL: LPVLTQPPSASGTPGQRVTISCSGRSSNIGSNSVNWYRQLPGAAPKLLIYSNNQRPPGVPVRFSGSKSGTSASLAISGLQSEDEATYYCATWDDNLNVHYVFGTGTKVTVLG
notes: also called ET140-3 mIgG1; ET140-3
no binding (tested: 1 ug/mL): ET140-p35 | ET140-p2 | ET140-p32 | ET140-p23 | ET140-p28 [2]
